What all share (assay): cell-based or functional assay
The target in test [1] is RSV B F protein variant I206M:Q209R:S211N (RSV B).
Test [2] has as its target RSV B F protein variant K68Q:S211N (RSV B).
Test [3] has as its target RSV B F protein variant K68N:N208S (RSV B, strain B9320).
The target of test [4] is RSV B F protein variant K68N (RSV B).
The target of test [5] is RSV B F protein variant I64T:K68E:I206M:Q209R (RSV B).
In test [6] the target is RSV B F protein variant S211N (RSV B).
For test [7], the target named is RSV B F protein variant I206M:Q209R (RSV B).
The target in test [8] is RSV B F protein variant K65Q:K68N (RSV B).
The target in test [9] is RSV B F protein variant N208D (RSV B, strain B9320).
Test [10] deals with RSV B F protein variant K68Q:I206M:Q209R (RSV B).
Test [11] addresses RSV B F protein variant N201S (RSV B).
For test [12], the target named is RSV B F protein variant L203I (RSV B).
Test [13] addresses RSV B F protein variant K68N:N201S (RSV B, strain B9320).
The target in test [14] is RSV B F protein variant N201T:I206M:Q209R (RSV B).
Test [15] concerns the target RSV B F protein variant N208S (RSV B).

B1: nirsevimab (antibody, human IgG1, kappa, V domains shown)
VH: QVQLVQSGAEVKKPGSSVMVSCQASGGLLEDYIINWVRQAPGQGPEWMGGIIPVLGTVHYGPKFQGRVTITADESTDTAYMELSSLRSEDTAMYYCATETALVVSETYLPHYFDNWGQGTLVTVSS
VL: DIQMTQSPSSLSAAVGDRVTITCQASQDIVNYLNWYQQKPGKAPKLLIYVASNLETGVPSRFSGSGSGTDFSLTISSLQPEDVATYYCQQYDNLPLTFGGGTKVEIKR
In the case of B1, the “fold change in susceptibility to nirsevimab” value in test [1] worked out at 0.5 fold; in test [6] it was 1.2 fold; in [7], 0.23 fold. Also, the “fold reduced susceptibility to nirsevimab neutralization (recombinant RSV neutralization susceptibility assay)” value is 35.7 fold in test [2]; 29.9 fold in test [4]; more than 447 fold in test [5]; 1240 fold in [8]; 46.4 fold in test [10]; 127 fold in [11]. Besides, the “fold reduced susceptibility to nirsevimab neutralization (recombinant RSV neutralization susceptibility assay)” value in test [12] was 3000 fold; in test [14], more than 418 fold; in test [15] it was more than 387 fold. The “fold reduced susceptibility to nirsevimab (recombinant RSV B variant)” value in test [3] is more than 90000 fold; in [9], more than 90000 fold; in test [13] it was more than 13000 fold; in [15], more than 24000 fold.

The values above are taken from patent publication US20250340622A1 (AstraZeneca / MedImmune, published 2025).
